Laboratory results from paper PMC5610937 (Journal of molecular biology, 2017).
Positions count from the first letter of the chain named.

B1: chimeric rabbit/human anti-human ROR2 Fab XBR2-433 (Fab, V domains shown)
VH: QSVKESEGGLFKPTDTLTLTCTVSGFSLSTYGVSWVRQAPGNGLEWIGAIGSSGSANYASWAKDRSTITRNTNLNTVTLKMTSLTAADTATYFCARDGYYSSGWGPYFNIWGPGTLVTISS
VL: SFVLTQPASVQVNLGQTVSLTCTADTLSRSYASWYQQKPGQAPVLLIYRDTSRPSGVPDRFSGSSSGNTATLTISGAQAGDEADYYCATSGGSGSNPQYVFGGGTQLTVT
B2: chimeric rabbit/human anti-human ROR2 Fab XBR2-TOP72 (Fab, V domains shown)
VH: QEQLEESGGRLVTPGTPLTLTCTVSGIDLSSNAMSWVRQAPGKGLEYVGFINGGGGVHYASWARGRFTISKTSTTVDLKITSPTTEDTATYFCARAGTTYYTSFNLWGPGTLVTISS
VL: QFVLTQSPSASAALGSSAKLTCTLSSAHKTYTIAWYQQQQGEAPRLLMMLRTDGSYTKGTGVPDRFSGSSSGADRYLIISSVQADDAAGYYCGADYSGGYVFGGGTQLTVT
B3: chimeric rabbit/human anti-human ROR2 Fab ERR2-302 (Fab, V domains shown)
VH: QKQLVESGGGLVKPGGSLTLTCTVSGFSLSSYAIGWVRQAPGNGLEWIGIINSYGSTYYASWAKSRSTITRNTNLNTVTLKMTSLTAADTATYFCARSPYGYVSAWGYHRLDLWGQGTLVTISS
VL: SYELTQLPSVSVSLGQTARITCGGASIGSKVVHWYQQKPGLAPGLLIYDDDERPSGVPDRFSGSNSGDTATLTISGAQAGDEAEYYCQLWDGSDVVFGGGTQLTVT
B4: chimeric rabbit/human anti-human ROR2 Fab ERR2-TOP35 (Fab, V domains shown)
VH: B1 VH with T14M, S29N, I50V, S55A, A56T, D64S, L74E, N109S, I119V
VL: SFVLTQPASVQVNLGQTVSLTCTAETLRSSYASWYQQKPGQAPVLLIYRDTSRPSGVPDRFSGSSSGNTATLTISGAQAGDEADYYCATSDGSGSRYYVFGGGTQLTVT
B5: chimeric rabbit/human anti-human ROR1 Fab ERR1-306 (Fab, V domains shown)
VH: QEQLKESGGGLVQPGGSLKLSCKASGFDLSNYGVSWVRQAPGKGLEWIGYIDPTFDYTYYASWVNGRFSISRENTQNTVSLQINSLTPADTATYFCARWVYGVDDYGDGNWLDLWGQGTLVTISS
VL: QFVLTQSPSVSAALGASAKLTCTLSSAHKTYTIDWYQQQQGEAPRYLMELKSDGSYTKGTGVPDRFSGSSSGADRYLIIPSVQADDEADYYCGTDYSGGYVFGGGTQLTVT
B6: chimeric rabbit/human anti-human ROR1 Fab ERR1-TOP22 (Fab, V domains shown)
VH: QSLEESGGRLVTPGTPLTLTCTVSGFSLSSYYMSWVRQAPGKGLEWIGTISSSGSTYYASWVKGRFTISKTSTTVDLKMTSLTTEDTATYFCARDLDYDMDLWGPGTLVTVSS
VL: B3 VL with A25N, V31A, D49N, E84D, G92N, S93N, D94A, V95A
B7: chimeric rabbit/human anti-human ROR1 Fab XBR1-402 (Fab, V domains shown)
VH: QEQQKESGGGLFKPTDTLTLTCTASGFDISSYYMSWVRQAPGNGLEWIGAIGISGNAYYASWAKSRSTITRNTNLNTVTLKMTSLTAADTATYFCARDHPTYGMDLWGPGTLVTVSS
VL: B3 VL with G23E, A25N, S26N, V31A, E84D, L89V, G92S, D94A, V95Y
B8: chimeric rabbit/human anti-human ROR1 Fab ERR1-TOP43 (Fab, V domains shown)
VH: QSLEESGGRLVTPGTPLTLTCTVSGFSLSSYWMSWVRQAPGKGLEWIGAIYGSGNTYYASWAKGRFTISKTSTTVDLKITSPTTEDTATYFCARDVHSTATDLWGPGTLVTISS
VL: SYELTQLPSVSVSLGQTARITCGGNNIGSKAVNWYQQKPGLAPGLLIYNDDERPSGVPDRFSGSNSGDTATLTISGAQAGDEADYYCQLWDSSAGAYVFGGGTQLTVT
B9: chimeric rabbit/human anti-human ROR1 Fab ERR1-TOP54 (Fab, V domains shown)
VH: QSLEESGGRLVTPGTPLTLTCTASGFSLSDYYMSWVRQAPGEGLEWIGTIYGGSGNTWYATWAKGRFTISKTSTTVDLKITSPTTEDTATYFCARDFGLSTGGLWGPGTLVTISS
VL: B8 VL with N26S, N49D, G95R, Y97F
B10: chimeric rabbit/human anti-human ROR1 Fab ERR1-301 (Fab, V domains shown)
VH: QEQLEESGGGLVTPGGSLTLTCTASGFTISTYHMSWVRQAPGKGLEWIGSIYAGSGSTYYASWVNGRFTISSNTTQNTVSLQMNSLTVADTATYFCARDHPSYGMDLWGPGTLVTVSS
VL: B8 VL with N26S, N49D, G63A, G80E, G95V
B11: chimeric rabbit/human anti-human ROR1 Fab ERR1-316 (Fab, V domains shown)
VH: QEQLEESGGRLVTPGTPLTLTCTASGFFLSSYYVSWVRQAPGKGLEWIGAIGTGGSAYYASWAKSRSTITRNTNLSTVTLKMTSLTAADTATYFCARDHPNYGMDLWGPGTLVTVSS
VL: B8 VL with N26S, N49D, A94T, V98A
B12: chimeric rabbit/human anti-human ROR1 Fab ERR1-403 (Fab, V domains shown)
VH: QEQLKESGRGLVQPGGSLKLSCKASGFDFSGWYMTWVRQAPGKGLEWIGTIGTTKGRTYYASWVNGRFTISSNAQNTVDLQMNSLTAADRATYFCVRGSDYFDLWGPGTLVTISS
VL: B8 VL with N26S, N49D, D59A
B13: chimeric rabbit/human anti-human ROR1 Fab ERR1-409 (Fab, V domains shown)
VH: QEQLVESGGRLVTPGGSLTLTCTASGFSLSSYYMGWVRQAPGKGLEWIGTIYGGSGSTWYASWVKGRFTISKTSTAVDLKITSLTTEDTATYFCARSYPGWTTEPYFDIWGPGTLVTVSS
VL: QFVLTQPQSVSGSLGQTVSISCNRDSGNIEDYYVHWYQQHPGKAPTTVIYNDDQRPSGVPDRFSGSIDSTSNSASLTITGLLAEDEADYYCLSSDSSAYVFGGGTQLTVT
B14: chimeric rabbit/human anti-human ROR1 Fab ERR1-TOP4 (Fab, V domains shown)
VH: QSVEESGGRLVTPGTPLTLTCTASGIDLSRYAVNWVRQAPGKGLEWIGVISGSGTTYYASWAKGRFTISKTSTTVDLKITSPTTEDTATYFCARGWATDGIFDYDDTFNLWGPGTLVTVSS
VL: B3 VL with A25D, G28E, V31A, I47V, D49N, E84D, D94A, V95Y
B15: chimeric rabbit/human anti-human ROR1 Fab ERR1-TOP15 (Fab, V domains shown)
VH: QEQLVESGGRLVTPGGSLTLTCAASGFSPSSYWMSWVRQAPGKGLEWIGAIYVDSGSAYYASWAKSRFTISKTSSTTVDLKMTSLTTEDTAIYFCARDGWGSDVWGPGTLVTISS
VL: B8 VL with N26S, N33H, N49D

Assays:
[1] = target: human ROR1 ectopically and stably expressed on mouse pre-B cell line 63-12 (Homo sapiens (Human)., UniProt Q01973); test: flow cytometry on cells
Fc-hROR2 protein [2] = target: T1, Fc-hROR2 protein (Homo sapiens (Human)., UniProt Q01974); test: SPR
[3] = target: mouse ROR2 extracellular domains displayed on HEK293F cells (Mus musculus (Mouse)., UniProt Q9Z138); test: flow cytometry on cells
mouse ROR2 extracellular domains displayed on HEK293F cells, sequence (Q9Z138 34-403): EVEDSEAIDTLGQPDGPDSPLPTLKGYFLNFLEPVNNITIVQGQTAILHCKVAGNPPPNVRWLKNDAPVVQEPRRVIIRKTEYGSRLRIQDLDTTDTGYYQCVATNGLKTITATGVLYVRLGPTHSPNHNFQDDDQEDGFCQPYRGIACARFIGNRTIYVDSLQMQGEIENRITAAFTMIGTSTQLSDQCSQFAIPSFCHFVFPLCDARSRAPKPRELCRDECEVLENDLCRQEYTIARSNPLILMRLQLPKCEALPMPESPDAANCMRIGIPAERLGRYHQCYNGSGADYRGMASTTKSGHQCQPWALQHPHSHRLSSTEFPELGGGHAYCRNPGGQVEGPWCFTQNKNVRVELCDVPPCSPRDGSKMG

[4] = target: human Fc fusion protein of the extracellular domain of mouse ROR1 (Mus musculus (Mouse)., UniProt Q9Z139); test: ELISA
human Fc fusion protein of the extracellular domain of mouse ROR1, sequence (Q9Z139 30-406): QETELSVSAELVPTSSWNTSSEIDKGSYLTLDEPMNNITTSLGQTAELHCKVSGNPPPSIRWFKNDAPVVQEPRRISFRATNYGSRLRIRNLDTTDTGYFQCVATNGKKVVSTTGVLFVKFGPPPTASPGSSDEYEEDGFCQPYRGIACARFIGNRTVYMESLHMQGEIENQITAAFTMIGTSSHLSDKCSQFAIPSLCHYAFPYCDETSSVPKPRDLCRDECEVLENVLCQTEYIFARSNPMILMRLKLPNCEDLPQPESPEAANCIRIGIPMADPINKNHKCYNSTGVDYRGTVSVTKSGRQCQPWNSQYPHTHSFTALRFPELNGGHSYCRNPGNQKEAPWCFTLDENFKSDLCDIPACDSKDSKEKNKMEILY

Fc-hROR2 protein [5] = target: T1, Fc-hROR2 protein; test: ELISA
[6] = target: human ROR2 ectopically and stably expressed on mouse pre-B cell line 63-12 (Homo sapiens (Human)., UniProt Q01974); test: flow cytometry on cells

Row | Binder | binding result [1] | Kd (Fc-hROR2 protein [2]) [nM] | binding result [3] | binding result [4] | binding result (Fc-hROR2 protein [5]) | binding result [6]
1 | B1 | no binding | 2280 | binds |  |  | 
2 | B2 | no binding | 4150 | binds |  |  | 
3 | B3 | no binding | 52.5 | binds |  |  | 
4 | B4 | no binding | 43.3 | binds |  |  | 
5 | B5 |  |  |  | binds | no binding (tested: 100 ng Fab in 50 μL) | no binding (tested: 10 μg/mL)
6 | B6 |  |  |  | binds | no binding (tested: 100 ng Fab in 50 μL) | no binding (tested: 10 μg/mL)
7 | B7 |  |  |  | no binding (tested: 100 ng Fab in 50 μL) | no binding (tested: 100 ng Fab in 50 μL) | no binding (tested: 10 μg/mL)
8 | B8 |  |  |  | no binding (tested: 100 ng Fab in 50 μL) | no binding (tested: 100 ng Fab in 50 μL) | no binding (tested: 10 μg/mL)
9 | B9 |  |  |  | no binding (tested: 100 ng Fab in 50 μL) | no binding (tested: 100 ng Fab in 50 μL) | no binding (tested: 10 μg/mL)
10 | B10 |  |  |  | no binding (tested: 100 ng Fab in 50 μL) | no binding (tested: 100 ng Fab in 50 μL) | no binding (tested: 10 μg/mL)
11 | B11 |  |  |  | no binding (tested: 100 ng Fab in 50 μL) | no binding (tested: 100 ng Fab in 50 μL) | no binding (tested: 10 μg/mL)
12 | B12 |  |  |  | no binding (tested: 100 ng Fab in 50 μL) | no binding (tested: 100 ng Fab in 50 μL) | no binding (tested: 10 μg/mL)
13 | B13 |  |  |  | no binding (tested: 100 ng Fab in 50 μL) | no binding (tested: 100 ng Fab in 50 μL) | no binding (tested: 10 μg/mL)
14 | B14 |  |  |  | no binding (tested: 100 ng Fab in 50 μL) | no binding (tested: 100 ng Fab in 50 μL) | no binding (tested: 10 μg/mL)
15 | B15 |  |  |  | no binding (tested: 100 ng Fab in 50 μL) | no binding (tested: 100 ng Fab in 50 μL) | no binding (tested: 10 μg/mL)
